As usually defined, the IC50 is the concentration at which inhibition is half-maximal. The term EC50 denotes the concentration at which the effect is half-maximal.

This is an account of results in patent US20160311918A1, “Anti-Ron Monoclonal Antibodies as a Cytotoxic Drug Delivery System for Targeted Cancer Therapy” (TEXAS TECH UNIVERSITY SYSTEM, priority 2013, published 2016).

In assay [1] the test system is HT29 cells. Nature of the assay: Cell viability assay, HT29. It is filed as cell-based, human. The following applies: read-out: IC50 cell viability, free DM1. The protocol:
(§1) Cell viability was determined by the MTS assay. […] Morphological changes were observed under the Olympus BK-41 inverted microscope and photographed. […] FIG. 3D: Cell death percentages were determined by the trypan blue exclusion method.
(§2) Cell viability and death assays: Cell viability 72 h after Zt/g4-DM1 treatment was determined by the MTT assay (22). Viable or dead cells were determined by the trypan blue exclusion assay. A total of 900 cells were counted from three individual wells to reach the percentages of dead cells.
(§3) The effect of Zt/g4-DM1 on cell viability was determined. […] The cells were treated with Zt/g4-DM1.

In assay [2] the test system is HCT116 cells. Nature of the assay: Cell viability assay, HCT116. Type of assay: cell-based, human. The conditions noted are these: read-out: IC50 cell viability, free DM1. As for the experimental part: as §1, §2, §3
The test system of assay [3] is SW620 cells. Nature of the assay: Cell viability assay, SW620. Type of assay: cell-based, human. The following applies: read-out: IC50 cell viability, free DM1. As for the experimental part: as §1, §2, §3
In assay [4] the target is T1, oncogenic RON variant RON160 (human, UniProt Q04912 25-1400, limits assumed).
T1 construct: also called RONΔ160
Nature of the assay: receptor binding studies; format not stated.

Assay [5] has as its system Colon cancer HT-29 cell-mediated tumor growth. The assay can be described thus: HT-29 cell-mediated tumor growth in athymic nude mice (Zt/f2). Type of assay: in vivo, mouse. From the text: (§4) This sequence is critical in regulating RON maturation and phosphorylation. […] These biochemical features provide the cellular basis for the use of Zt/f2 to inhibit tumor growth in animal model. Repeated administration of Zt/f2 as a single agent into Balb/c mice results in partial inhibition of tumor growth caused by transformed NIH-3T3 cells expressing oncogenic RON160. Colon cancer HT-29 cell-mediated tumor growth in athymic nude mice also was attenuated following Zt/f2 treatment. In both cases, ˜50% inhibition of tumor growth as measured by tumor volume was achieved. […] The present inventors conclude that Zt/f2 is a potential therapeutic mAb capable of inhibiting RON-mediated oncogenesis by colon cancer cells in animal models. The inhibitory effect of Zt/f2 in vivo in combination with chemoagent 5-fluorouracil could represent a novel strategy for future colon cancer therapy.

In assay [6] the test system is human RON and its oncogenic variants such as RON160. The assay can be described thus: Zt/f2 receptor binding to human RON.
Description: as §4

Assay [7] deals with transformed NIH-3T3 cells expressing oncogenic RON160. Nature of the assay: Tumor growth by NIH-3T3 cells expressing RON160 in Balb/c mice. Type of assay: in vivo, mouse. The following applies: repeated administration, single agent.
Description: as §4

In assay [8] the target is RON (Homo sapiens, UniProt Q04912). Nature of the assay: Classification of anti-RON mAbs by activity upon binding to RON. It is filed as cell-based. From the text: Using an advanced living cell immunization method, the present inventors were able to generate mAbs specific only to the RON extracellular domains. Using flow cytometer in conjunction with biological assays, the present inventors characterize our anti-RON mAbs for their specificity and sensitivity. […] This is based on direct binding, ELISA, IHC, Western blotting and other biochemical and biological assays. Moreover, based on their activities upon binding to RON, the present inventors were able to classify the anti-RON mAb into three categories. […] This type of anti-RON mAbs is considered as agnostic antibodies. The representatives are Zt/g4, Zt/c1, Zt/c9, Zt/f1, and Zt/H12. […] The typical examples are Zt/g9 and Zt/c8. […] One example is Zt/f2. The present inventors considered this type of mAb having therapeutic potentials.
Chain of RON (Q04912 25-1400): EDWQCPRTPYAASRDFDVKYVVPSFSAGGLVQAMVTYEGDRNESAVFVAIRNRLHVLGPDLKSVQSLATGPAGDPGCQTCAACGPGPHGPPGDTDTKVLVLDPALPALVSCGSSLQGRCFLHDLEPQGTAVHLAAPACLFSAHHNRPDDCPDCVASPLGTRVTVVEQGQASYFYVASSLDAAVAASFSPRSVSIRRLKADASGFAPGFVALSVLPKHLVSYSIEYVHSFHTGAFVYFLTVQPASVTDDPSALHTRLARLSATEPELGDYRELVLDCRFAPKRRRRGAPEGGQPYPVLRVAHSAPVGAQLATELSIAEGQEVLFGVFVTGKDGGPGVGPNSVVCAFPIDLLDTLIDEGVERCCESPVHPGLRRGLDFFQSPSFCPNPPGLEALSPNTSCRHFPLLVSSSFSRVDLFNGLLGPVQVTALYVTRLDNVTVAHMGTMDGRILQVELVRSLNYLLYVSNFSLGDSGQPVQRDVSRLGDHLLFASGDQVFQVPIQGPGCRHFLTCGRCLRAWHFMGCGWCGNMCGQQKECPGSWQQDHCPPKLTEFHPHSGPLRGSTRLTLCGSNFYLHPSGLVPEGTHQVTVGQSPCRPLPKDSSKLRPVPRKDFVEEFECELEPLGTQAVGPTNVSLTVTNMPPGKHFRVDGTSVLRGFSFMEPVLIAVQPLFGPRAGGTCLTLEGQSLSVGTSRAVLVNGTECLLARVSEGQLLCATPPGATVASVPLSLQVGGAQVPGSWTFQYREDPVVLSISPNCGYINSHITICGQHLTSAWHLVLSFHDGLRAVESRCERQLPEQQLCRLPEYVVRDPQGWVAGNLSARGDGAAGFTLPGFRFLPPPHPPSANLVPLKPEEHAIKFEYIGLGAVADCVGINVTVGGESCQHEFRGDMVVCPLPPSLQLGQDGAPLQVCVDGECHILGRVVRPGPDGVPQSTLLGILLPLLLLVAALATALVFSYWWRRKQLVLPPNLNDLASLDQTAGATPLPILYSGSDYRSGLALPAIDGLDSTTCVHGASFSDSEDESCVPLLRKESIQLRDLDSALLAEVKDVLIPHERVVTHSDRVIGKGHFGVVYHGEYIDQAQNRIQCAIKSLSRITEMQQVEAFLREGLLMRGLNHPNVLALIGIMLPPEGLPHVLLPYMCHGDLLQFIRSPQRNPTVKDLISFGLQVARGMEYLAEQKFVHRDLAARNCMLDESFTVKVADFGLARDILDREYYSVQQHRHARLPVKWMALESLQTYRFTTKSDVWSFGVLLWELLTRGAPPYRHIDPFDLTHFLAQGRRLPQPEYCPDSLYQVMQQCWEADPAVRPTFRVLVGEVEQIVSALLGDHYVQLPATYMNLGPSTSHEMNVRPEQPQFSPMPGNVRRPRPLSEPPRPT

Assay [9] deals with T2, human RON receptor tyrosine kinase (recepteur d'origine nantais) (human, UniProt Q04912 25-1400). Nature of the assay: cell-based or functional assay.
Assay [10] deals with T2, human RON receptor tyrosine kinase …. Nature of the assay: cell-based or functional assay. The source holds these as a separate data set.
For assay [11] the target is unchanged. The assay can be described thus: direct binding, ELISA, IHC, Western blotting, flow cytometry. (In an ELISA, binding on a coated surface is turned into a signal by an enzyme label.)
Assay [12] has as its target cell surface RON (Homo sapiens, UniProt Q04912). Nature of the assay: Antibody-induced RON endocytosis in cancerous cells. Also on record: cause rapid and significant amount of cell surface RON internalization in cancerous cells; endogenous in cells. Type of assay: cell-based. An excerpt:
During characterization of anti-RON mAbs, the present inventors discovered that agonistic anti-RON mAb such as Zt/g4 and Zt/c1 binds to RON and cause rapid and significant amount of cell surface RON internalization in cancerous cells (a process known as antibody-induced receptor endocytosis). […] Fab fragments that fail to cause RON activation cannot induce RON endocytosis. In light of these findings, the present inventors conclude that anti-RON mAb-induced RON endocytosis can be used as a pharmaceutical means for targeted drug delivery.

In assay [13] the target is T3, mouse RON homologue (Mus musculus, UniProt Q62190).
T3 sequence (Q62190 24-1378): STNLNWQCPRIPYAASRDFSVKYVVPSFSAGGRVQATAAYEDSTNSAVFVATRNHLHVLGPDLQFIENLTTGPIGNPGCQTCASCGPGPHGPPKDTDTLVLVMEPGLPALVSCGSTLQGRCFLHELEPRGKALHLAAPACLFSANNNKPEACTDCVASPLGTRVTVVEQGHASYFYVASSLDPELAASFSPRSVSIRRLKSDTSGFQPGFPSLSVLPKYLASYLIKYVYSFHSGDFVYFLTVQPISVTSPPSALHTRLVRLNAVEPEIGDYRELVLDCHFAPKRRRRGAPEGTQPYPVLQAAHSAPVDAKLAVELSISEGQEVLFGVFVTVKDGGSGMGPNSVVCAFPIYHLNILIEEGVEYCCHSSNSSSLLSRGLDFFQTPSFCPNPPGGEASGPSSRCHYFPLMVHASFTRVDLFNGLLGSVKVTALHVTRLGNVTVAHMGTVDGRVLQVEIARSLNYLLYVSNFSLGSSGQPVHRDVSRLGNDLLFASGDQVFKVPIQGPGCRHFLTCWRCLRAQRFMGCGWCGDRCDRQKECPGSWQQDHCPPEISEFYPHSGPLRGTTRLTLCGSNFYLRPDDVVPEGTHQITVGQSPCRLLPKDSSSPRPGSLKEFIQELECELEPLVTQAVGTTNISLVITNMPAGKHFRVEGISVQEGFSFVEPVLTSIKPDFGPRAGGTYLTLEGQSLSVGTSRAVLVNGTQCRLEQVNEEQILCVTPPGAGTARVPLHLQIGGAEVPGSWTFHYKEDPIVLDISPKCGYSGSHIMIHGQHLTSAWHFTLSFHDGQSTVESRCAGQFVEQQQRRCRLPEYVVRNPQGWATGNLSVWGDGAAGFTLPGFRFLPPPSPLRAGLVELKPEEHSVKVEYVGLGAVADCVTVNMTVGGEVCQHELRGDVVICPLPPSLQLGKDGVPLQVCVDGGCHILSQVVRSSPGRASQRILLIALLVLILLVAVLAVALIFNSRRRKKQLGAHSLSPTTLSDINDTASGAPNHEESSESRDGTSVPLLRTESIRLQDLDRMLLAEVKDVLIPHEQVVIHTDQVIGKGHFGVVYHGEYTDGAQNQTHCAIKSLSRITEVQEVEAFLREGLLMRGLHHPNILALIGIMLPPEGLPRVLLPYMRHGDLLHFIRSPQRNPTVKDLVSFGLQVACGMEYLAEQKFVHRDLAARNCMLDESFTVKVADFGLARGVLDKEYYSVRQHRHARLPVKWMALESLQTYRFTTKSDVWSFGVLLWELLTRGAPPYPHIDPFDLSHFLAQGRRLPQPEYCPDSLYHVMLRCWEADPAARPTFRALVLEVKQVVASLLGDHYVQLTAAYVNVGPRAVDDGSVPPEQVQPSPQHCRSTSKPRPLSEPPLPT
The conditions noted are these: cited from earlier work.

Assay [14] has as its system human pancreatic cancer cells. Nature of the assay: PDAC cell viability in combination with chemotherapeutics. Type of assay: cell-based. The protocol:
In vitro cell viability and death assays: Cell viability after treatment of Zt/g4-DM1, chemotherapeutics, and their combinations was determined by the MTT assay. Cell death was determined by the trypan blue exclusion assay.
FIGS. 10A to 10D are graphs that show the effect of Zt/g4-DM1 on pancreatic cancer cell cycle, viability, and apoptotic death. […] FIG. 12 are graphs that show synergism between Zt/g4-DM1 and chemotherapeutics by isobolograms.

“And” between values parts separate entries of the source, which are not always exact repeats. Equal entries are not always repeated.

Chain of cell surface RON (Q04912 25-1400): as the sequence (Q04912 25-1400) above

With `COc1cc2cc(c1Cl)N(C)C(=O)C[C@H](OC(=O)[C@H](C)N(C)C(=O)CCS)[C@]1(C)O[C@H]1[C@H](C)[C@@H]1C[C@@](O)(NC(=O)O1)[C@H](OC)/C=C/C=C(\C)C2` [DM1, Maytansinoid (DM1)], the IC50 in assay [1] was found to be 4.4 nM; in assay [2] it was 4.1 nM; in [3], 3.2 nM.

B1: mouse monoclonal antibody Zt/f2 specific to human RON (antibody, V domains shown)
VH: QVQLQQSGAELAKPGASVKMSCKASGYTFTSYWMHWVKQRPGQGLEWIGYINPSTGYIEYNQNFKDKATLTADKSSSTAYMQLSSLTSEDSAVYYCARSPSHYYGSRYGYFDVWGAGTTVTVSS
VL: QIVLSQSPAILSASPGEKVTMTCRASSSVSYMHWYQQKPGSSPKPWIYATSNLASGVPARFSGSGSGTSYSLTISRVEAEDAATYYCQQWSSNPRTFGGGTKLEIK
notes: Mouse IgG2a; also called anti-RON mAb Zt/f2
B1 returned an EC50 in assay [4] of 2.3 nM.

B2: Zt/f2: mouse IgG2a mAb specific to human RON and its oncogenic variants such as RON160 (antibody, V domains shown)
VH: B1 VH
VL: B1 VL
In the case of B2, the “inhibition effect on HT-29 cell-mediated tumor growth” value in assay [5] (in combination with 5-fluorouracil) is given as ~80%. Further, the “inhibition of tumor growth as measured by tumor volume” value in assay [5] (single agent, athymic nude mice) is reported as ~50%; in [7], ~50%. The “competition with ligand macrophage-stimulating protein for binding to RON” value in assay [6] is “did not compete”. In assay [8], the “activity upon binding to RON” value is “inhibit RON activation and signaling”.

B3: anti-RON antibody Zt/g4-maytansinoid (DM1) conjugate Zt/g4-DM1 (antibody, V domains shown)
VH: EVQLQQSGAELVKPGASVKLSCTTSGFNIIDTYIHWVNQKPDQGLEWIGRIDPADGNRKSDPKFQVKATITVDTSSNTAYLQLSSLTSGDTAVYYCARGYGNLNAMDSWGQGTSVTVSS
VL: DIQMNQSPSSLSASLGDTITITCHASQNINVWLNWYQQKPGNIPKLLIYKASNLHTGVPSRFSGSGSGTGFTLTISSLQPEDIATYYCQQGQSYPLTFGGGTKLEIK
modifications: DM1 conjugated by non-reducible thioether linkage (SMCC) through lysine residues in the antibody molecule; sites not stated; DM1 conjugated by non-reducible thioether linkage (SMCC) through lysine residues in the antibody molecule; average DAR 3.724; sites not stated
As for B3, in [9], the “IC50 of cell death at 72 h, three CRC cell lines” value is 5 to 7 mg/L; the “IC50 of cell viability at 72 h, HCT116 cells” value worked out at 2.16 mg/L; the “IC50 of cell viability at 72 h, HT29 cells” value came to 1.64 mg/L; the “IC50 of cell viability at 72 h, SW620 cells” value worked out at 4.03 mg/L. Further, in assay [9], the “IC50 of cell viability, DLD1 cells” value was determined as 20.4 mg/L and the “average IC50 value in causing cell death, three PDAC cell lines (L3.6pl, BxPC-3, FG)” value amounted to 3.13 mg/L. Moreover, the “IC50 value, cytotoxic effect on HT-29 cells” value in assay [10] is 1.25 µg/mL and 8.32 nM.

B4: mouse anti-RON monoclonal antibody Zt/g4 (antibody, V domains shown)
VH: B3 VH
VL: B3 VL
notes: Mouse IgG1a/kappa from hybridoma; The leader is not part of the antibody as tested; also called free Zt/g4; anti-RON mAb Zt/g4
As to B4, in assay [11], the binding result is “binds”.

B5: Zt/g4: mouse monoclonal antibody (IgG1α/κ) highly specific to human RON, recognizes the RON sema domain (antibody, V domains shown)
VH: B3 VH
VL: B3 VL
B5: the “absence of RON expression in cancerous cells in culture” value in assay [12] (after endocytosis) is given as “up to 72 h”. In assay [12] (within 24 h, 10 μg/ml/1×10^6 cancer cells), the “cell surface RON internalization” value is recorded as “almost all cell surface RON is internalized”. Moreover, in assay [13], the “species recognition of RON” value is reported as “only recognizes human RON but not mouse RON homologue”. In addition, the “activity upon binding to RON” value in [8] is reported as “cause transient RON phosphorylation”.

B6: Zt/g4-MMAE (antibody, V domains shown)
VH: B3 VH
VL: B3 VL
modifications: monomethyl auristatin E (MMAE) conjugated; average drug to antibody ratio 3.8:1; sites not stated
For B6, in assay [9], the “average IC50 value in causing cell death, three PDAC cell lines (L3.6pl, BxPC-3, FG)” value was 5.16 mg/L.

B7: Zt/g4-MMAE: Zt/g4 conjugated to monomethyl auristatin E (MMAE) (conjugate)
VH: B3 VH
VL: B3 VL
For the molecule B7, the “combination effect on viability of human pancreatic cancer cells” value in [14] (in combination with Gemcitabine) and in [14] (in combination with Oxaliplatin) was “synergistic activity” in each case.
